In paper PMC3842841, “VacA, the vacuolating cytotoxin of Helicobacter pylori, binds to multimerin 1 on human platelets” (Thrombosis Journal, 2013):

Target: T1, VacA, the vacuolating cytotoxin of Helicobacter pylori (Helicobacter pylori ATCC49503, UniProt Q48245 34-854)
T1 sequence: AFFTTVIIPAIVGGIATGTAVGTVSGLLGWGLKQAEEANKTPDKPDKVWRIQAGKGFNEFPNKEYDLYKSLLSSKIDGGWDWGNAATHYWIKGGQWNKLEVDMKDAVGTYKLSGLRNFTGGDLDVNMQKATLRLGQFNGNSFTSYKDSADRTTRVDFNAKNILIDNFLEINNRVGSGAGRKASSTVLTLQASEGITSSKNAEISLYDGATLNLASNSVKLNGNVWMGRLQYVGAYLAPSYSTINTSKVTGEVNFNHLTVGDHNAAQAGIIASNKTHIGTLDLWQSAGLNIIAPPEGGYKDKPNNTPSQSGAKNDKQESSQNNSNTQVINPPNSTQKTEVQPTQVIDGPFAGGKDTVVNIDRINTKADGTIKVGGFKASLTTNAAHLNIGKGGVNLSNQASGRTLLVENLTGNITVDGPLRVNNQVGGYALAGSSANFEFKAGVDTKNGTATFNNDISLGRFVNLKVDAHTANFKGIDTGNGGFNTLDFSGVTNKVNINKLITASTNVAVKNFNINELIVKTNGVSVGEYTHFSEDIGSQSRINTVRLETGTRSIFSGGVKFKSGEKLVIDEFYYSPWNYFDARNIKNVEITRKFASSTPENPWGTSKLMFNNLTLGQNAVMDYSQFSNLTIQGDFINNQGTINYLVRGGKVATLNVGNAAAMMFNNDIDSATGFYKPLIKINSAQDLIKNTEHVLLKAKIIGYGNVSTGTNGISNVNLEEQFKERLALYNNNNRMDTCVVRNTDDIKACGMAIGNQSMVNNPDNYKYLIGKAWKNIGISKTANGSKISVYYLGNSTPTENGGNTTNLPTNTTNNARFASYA
Test: SPR; BIAcore X, 25°C; GST-MMRN1 amine-coupled to a CM5 chip; VacA in PBS with 1 mM Ca++ perfused at 20 μL/min; control surface subtracted
Details: both partners purified

B1: Glutathione S-transferase (GST)-fusion protein of multimerin 1 (291a.a. ~ 391a.a.) (domain or fragment)
chain: IHTNQAESHTAVGRGVAEQQQQQGCGDPEVMQKMTDQVNYQAMKLTLLQKKIDNISLTVNDVRNTYSSLEGKVSEDKSREFQSLLKGLKSKSINVLIRDIV
notes: multimerin 1 (MMRN1), residues 291-391; also called GST-MMRN1; GST-fusion protein of partial MMRN1 (291aa-391aa); source: bought: Abnova Corporation
Question: How did the Kd turn out when B1 was run?
Answer: 0.033 µM
